# Reference: PMC2265480, “Identification of Synaptic Targets of Drosophila Pumilio”
# T1: GST-Pum (Pumilio RNA-binding domain) (Drosophila, UniProt P25822 1091-1533)
# T1 sequence: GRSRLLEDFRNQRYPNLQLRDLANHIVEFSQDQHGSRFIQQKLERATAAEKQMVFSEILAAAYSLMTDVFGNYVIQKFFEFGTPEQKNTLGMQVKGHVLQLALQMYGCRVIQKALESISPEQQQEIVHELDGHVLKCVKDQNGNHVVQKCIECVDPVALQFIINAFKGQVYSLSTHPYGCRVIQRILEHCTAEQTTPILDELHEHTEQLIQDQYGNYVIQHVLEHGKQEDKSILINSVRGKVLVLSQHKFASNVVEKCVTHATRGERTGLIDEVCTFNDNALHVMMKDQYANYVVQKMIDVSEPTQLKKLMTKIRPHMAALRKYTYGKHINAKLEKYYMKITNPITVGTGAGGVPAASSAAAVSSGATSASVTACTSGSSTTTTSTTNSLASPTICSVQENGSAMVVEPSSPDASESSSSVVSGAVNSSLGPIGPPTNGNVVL
# T2: GST-Pum (Pumilio RNA-binding domain) (Drosophila) (UniProt P25822)
# T2 sequence: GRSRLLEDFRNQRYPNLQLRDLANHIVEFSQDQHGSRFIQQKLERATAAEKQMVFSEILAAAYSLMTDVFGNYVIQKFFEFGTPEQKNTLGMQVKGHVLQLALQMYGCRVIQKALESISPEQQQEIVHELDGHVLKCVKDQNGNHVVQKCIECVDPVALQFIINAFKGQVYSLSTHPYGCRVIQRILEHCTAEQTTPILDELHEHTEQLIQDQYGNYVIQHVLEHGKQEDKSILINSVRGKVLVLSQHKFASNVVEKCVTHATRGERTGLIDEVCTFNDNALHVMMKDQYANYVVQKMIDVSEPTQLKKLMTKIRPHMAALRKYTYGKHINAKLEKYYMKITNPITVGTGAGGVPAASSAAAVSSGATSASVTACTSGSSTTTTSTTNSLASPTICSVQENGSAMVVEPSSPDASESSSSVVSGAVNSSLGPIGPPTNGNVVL
# What was measured:
# [1] = target: T1, GST-Pum (Pumilio RNA-binding domain); experiment: EMSA; details: 5:1 protein:RNA, 10 mM Hepes/KOH pH 7.4, 50 mM KCl, 3 mM MgCl2, 1 mM EDTA, 2 mM DTT, 0.1 mg/ml BSA, 0.1 mg/ml yeast tRNA, 0.01% Tween-20, 0.2 U RNasin, 10% glycerol, 10 ul …
# [2] = target: T2, GST-Pum (Pumilio RNA-binding domain) (Drosophila); experiment: EMSA; details: 5:1 protein:RNA (50 fmol:10 fmol); one complex; 10 mM Hepes/KOH pH 7.4, 50 mM KCl, 3 mM MgCl2, 1 mM EDTA, 2 mM DTT, 0.1 mg/ml BSA, 0.1 mg/ml yeast tRNA, 0.01% Tween-20, 0.2 U RNasin, 10% glycerol, 10 ul …
# [3] = target: T1, GST-Pum (Pumilio RNA-binding domain); experiment: EMSA; up to 50 fmol protein:10 fmol RNA; 10 mM Hepes/KOH pH 7.4, 50 mM KCl, 3 mM MgCl2, 1 mM EDTA, 2 mM DTT, 0.1 mg/ml BSA, 0.1 mg/ml yeast tRNA, 0.01% Tween-20, 0.2 U RNasin, 10% glycerol, 10 ul, 20 min room temperature; 5% native gel in 1x TBE; details: protein: recombinant; tags: N-terminal GST; label: radiolabel
molecule,measurement,setting,value
AP-1gamma 3'UTR 85-191,binding signal,[1]; one complex,21.8 % bound
AUUAUUUUGUUGUCGAAAAUUGUACAUAAGCC [hb NRE2],binding signal,[2],67.9 % bound
Ace 3'UTR 722-1095,binding signal,[1],33 % bound
Csp 3'UTR 1218-1545,binding signal,[1]; 2 sites,57.2 % bound
EP2237 3'UTR 340-514,binding signal,[1],20.5 % bound
Gad1 3'UTR 704-973,binding signal,[1]; 2 sites,35.9 % bound
dlg1 (isoforms A and D) 3'UTR 1485-1539,binding signal,[1]; one complex,56.9 % bound
dlg1 isoform C 3'UTR 744-829,binding signal,[1]; not bound even at high molar ratio,0 % bound
mam 3'UTR 642-1110,binding signal,[1]; 2 sites,73.8 % bound
shn 3'UTR 809-1013,binding signal,[1]; 2 sites,59 % bound
GGUAGUGCAUACAACUUCCUU (ssRNA) [CRS random control RNA],binding result,[3],no binding
